In one assay the target is the mutant mIL-10R. Kind of assay: binding of iodinated hIL-10 to Ba/F3 transfectants, Scatchard analysis.
In another assay the target is mIL-10R Δ282-389 (mouse). Conditions: scale: log greater proliferative response than wild-type mIL-10R.
The target of another assay is mIL-10R Δ282-414 (mouse). Conditions: scale: log greater proliferative response than wild-type mIL-10R.
A further assay has as its target mIL-10R Δ282-458 (mouse). The settings on record: scale: log greater proliferative response than wild-type mIL-10R.
Assay [1] addresses T1, ^125 I-hIL-10 (iodinated recombinant CHO-derived human IL-10) (human, UniProt P22301, iodinated (125I); labelled residue not stated). The assay can be described thus: Scatchard analysis of 125I-hIL-10 saturation binding to Ba/F3 transfectants. How it is done: Approximately 5×10^6 cells for each cell line tested were pelleted by centrifugation at 200×g for 10 min, washed in PBS, and resuspended in 200 μl binding buffer (PBS, 10% fetal calf serum, 0.1% NaN_3) containing iodinated hIL-10 at a concentration of 100–500 pM. After incubation at 4° C. for two hours in a rotary mixer, the cells were centrifuged at 200×g for 10 min, resuspended in 100 μl binding buffer without labeled hIL-10, layered over 200 μl of a 1:1 mixture of dibutyl- and dioctyl-phthalate oils in elongated microcentrifuge tubes, centrifuged at 400×g for 5 min at 4° C., and quick frozen in liquid nitrogen. The cell pellets were then cut and counted in a Clinigamma 1272 counter (Pharmacia LKB). Non-specific binding was determined by performing the binding in the presence of 500 to 1000-fold molar excess unlabeled hIL-10. For saturation binding experiments, two-fold serial dilutions of approximately 600 pM solution of iodinated hIL-10 were used, with a parallel series done to determine non-specific binding. Scatchard analysis was performed on the data points obtained using the EBDA Program (Elsevier-Biosoft, Cambridge, U.K.). Antibody inhibition was done under the above binding conditions but with the addition of a 100-fold molar excess of each of the indicated monoclonal antibodies. Cytokine specificity was determined under similar conditions but with the addition of 500-fold molar excess of the cytokines indicated. Similar measurements can be made using the BIACORE apparatus (Pharmacia LKB) following manufacturer's recommendations.

The target of assay [2] is T1, ^125 I-hIL-10 (iodinated recombinant …). Kind of assay: binding of iodinated hIL-10 to Ba/F3 transfectants.

“And” between values parts separate entries of the source, which are not always exact repeats. Identical values can stand only once.

As for “^125 I-hIL-10 (iodinated recombinant CHO-derived human IL-10) (from UniProt P22301) (ligand)”, the Kd with the mutant mIL-10R lay in the range of 0.4 to 0.6 nM.
On to IL-10 (ligand), for which the proliferative response to IL-10 of Ba/F3 transfectants in the assay with mIL-10R Δ282-389 (mouse) is 1.5 and 2; with mIL-10R Δ282-414 (mouse) it was 1.5 and 2; with mIL-10R Δ282-458 (mouse), 1.5 and 2.

B1: wild-type mouse IL-10 receptor (mIL-10R) (receptor)
chain: LEFIAYGTELPSPSYVWFEARFFQHILHWKPIPNQSESTYYEVALKQYGNSTWNDIHICRKAQALSCDLTTFTLDLYHRSYGYRARVRAVDNSQYSNWTTTETRFTVDEVILTVDSVTLKAMDGIIYGTIHPPRPTITPAGDEYEQVFKDLRVYKISIRKFSELKNATKRVKQETFTLTVPIGVRKFCVKVLPRLESRINKAEWSEEQCLLITTEQYFTVTNLSILVISMLLFCGILVCLVLQWYIRHPGKLPTVLVFKKPHDFFPANPLCPETPDAIHIVDLEVFPKVSLELRDSVLHGSTDSGFGSGKPSLQTEESQFLLPGSHPQIQGTLGKEESPGLQATCGDNTDSGICLQEPGLHSSMGPAWKQQLGYTHQDQDDSDVNLVQNSPGQPKYTQDASALGHVCLLEPKAPEEKDQVMVTFQGYQKQTRWKAEAAGPAECLDEEIPLTDAFDPELGVHLQDDLAWPPPALAAGYLKQESQGMASAPPGTPSRQWNQLTEEWSLLGVVSCEDLSIESWRFAHKLDPLDCGAAPGGLLDSLGSNLVTLPLISSLQVEE
As for B1, in assay [1], the dissociation constant Kd was found to be 0.28 nM.

B2: mIL-10R Δ483-559 (receptor)
chain: LEFIAYGTELPSPSYVWFEARFFQHILHWKPIPNQSESTYYEVALKQYGNSTWNDIHICRKAQALSCDLTTFTLDLYHRSYGYRARVRAVDNSQYSNWTTTETRFTVDEVILTVDSVTLKAMDGIIYGTIHPPRPTITPAGDEYEQVFKDLRVYKISIRKFSELKNATKRVKQETFTLTVPIGVRKFCVKVLPRLESRINKAEWSEEQCLLITTEQYFTVTNLSILVISMLLFCGILVCLVLQWYIRHPGKLPTVLVFKKPHDFFPANPLCPETPDAIHIVDLEVFPKVSLELRDSVLHGSTDSGFGSGKPSLQTEESQFLLPGSHPQIQGTLGKEESPGLQATCGDNTDSGICLQEPGLHSSMGPAWKQQLGYTHQDQDDSDVNLVQNSPGQPKYTQDASALGHVCLLEPKAPEEKDQVMVTFQGYQKQTRWKAEAAGPAECLDEEIPLTDAFDPELGVHLQDDLAWPPPALAAGYLKQES
On to B2, for which the dissociation constant (Kd) in assay [1] is 0.54 nM.

B3: mIL-10R Δ282-458 (receptor)
chain: LEFIAYGTELPSPSYVWFEARFFQHILHWKPIPNQSESTYYEVALKQYGNSTWNDIHICRKAQALSCDLTTFTLDLYHRSYGYRARVRAVDNSQYSNWTTTETRFTVDEVILTVDSVTLKAMDGIIYGTIHPPRPTITPAGDEYEQVFKDLRVYKISIRKFSELKNATKRVKQETFTLTVPIGVRKFCVKVLPRLESRINKAEWSEEQCLLITTEQYFTVTNLSILVISMLLFCGILVCLVLQWYIRHPGKLPTVLVFKKPHDFFPANPLCPETPDAIHIVGVHLQDDLAWPPPALAAGYLKQESQGMASAPPGTPSRQWNQLTEEWSLLGVVSCEDLSIESWRFAHKLDPLDCGAAPGGLLDSLGSNLVTLPLISSLQVEE
On to B3, for which the binding result in assay [2] is recorded as “binds”.

B4: mIL-10R Δ282-414 (receptor)
chain: LEFIAYGTELPSPSYVWFEARFFQHILHWKPIPNQSESTYYEVALKQYGNSTWNDIHICRKAQALSCDLTTFTLDLYHRSYGYRARVRAVDNSQYSNWTTTETRFTVDEVILTVDSVTLKAMDGIIYGTIHPPRPTITPAGDEYEQVFKDLRVYKISIRKFSELKNATKRVKQETFTLTVPIGVRKFCVKVLPRLESRINKAEWSEEQCLLITTEQYFTVTNLSILVISMLLFCGILVCLVLQWYIRHPGKLPTVLVFKKPHDFFPANPLCPETPDAIHIVEEKDQVMVTFQGYQKQTRWKAEAAGPAECLDEEIPLTDAFDPELGVHLQDDLAWPPPALAAGYLKQESQGMASAPPGTPSRQWNQLTEEWSLLGVVSCEDLSIESWRFAHKLDPLDCGAAPGGLLDSLGSNLVTLPLISSLQVEE
Turning to B4, the dissociation constant (Kd) in assay [1] was 0.67 nM.

B5: mIL-10R Δ282-389 (receptor)
chain: LEFIAYGTELPSPSYVWFEARFFQHILHWKPIPNQSESTYYEVALKQYGNSTWNDIHICRKAQALSCDLTTFTLDLYHRSYGYRARVRAVDNSQYSNWTTTETRFTVDEVILTVDSVTLKAMDGIIYGTIHPPRPTITPAGDEYEQVFKDLRVYKISIRKFSELKNATKRVKQETFTLTVPIGVRKFCVKVLPRLESRINKAEWSEEQCLLITTEQYFTVTNLSILVISMLLFCGILVCLVLQWYIRHPGKLPTVLVFKKPHDFFPANPLCPETPDAIHIVSPGQPKYTQDASALGHVCLLEPKAPEEKDQVMVTFQGYQKQTRWKAEAAGPAECLDEEIPLTDAFDPELGVHLQDDLAWPPPALAAGYLKQESQGMASAPPGTPSRQWNQLTEEWSLLGVVSCEDLSIESWRFAHKLDPLDCGAAPGGLLDSLGSNLVTLPLISSLQVEE
For the molecule B5, the binding result in assay [2] is recorded as “binds”.

These data come from patent US5716804, “Mammalian interleukin-10 (IL-10) super-activating receptors; and variants” (Schering Corporation, dated 1998).
